Results: IntAct's records for PubMed 16717130

B1: Serine/threonine-protein kinase PAK 1 (Homo sapiens), Q13153 (parent)
chain: MSNNGLDIQDKPPAPPMRNTSTMIGAGSKDAGTLNHGSKPLPPNPEEKKKKDRFYRSILPGDKTNKKKEKERPEISLPSDFEHTIHVGFDAVTGEFTGMPEQWARLLQTSNITKSEQKKNPQAVLDVLEFYNSKKTSNSQKYMSFTDKSAEDYNSSNALNVKAVSETPAVPPVSEDEDDDDDDATPPPVIAPRPEHTKSVYTRSVIEPLPVTPTRDVATSPISPTENNTTPPDALTRNTEKQKKKPKMSDEEILEKLRSIVSVGDPKKKYTRFEKIGQGASGTVYTAMDVATGQEVAIKQMNLQQQPKKELIINEILVMRENKNPNIVNYLDSYLVGDELWVVMEYLAGGSLTDVVTETCMDEGQIAAVCRECLQALEFLHSNQVIHRDIKSDNILLGMDGSVKLTDFGFCAQITPEQSKRSTMVGTPYWMAPEVVTRKAYGPKVDIWSLGIMAIEMIEGEPPYLNENPLRALYLIATNGTPELQNPEKLSAIFRDFLNRCLEMDVEKRGSAKELLQHQFLKIAKPLSSLTPLIAAAKEATKNNH

Variants of: B1
Conditions: with paxi_chick PXN

Variant	effect of a mutation on the interaction
L107F	increasing interaction
K299A	decreasing interaction
